Results reported in the supplement of paper PMC5998384.

Key:
[1] = tested on: HeLa Kyoto; experiment: thermal stability score vs G1/S (z-score of summed log2 fold changes over temperatures); higher = more thermally stable than in G1/S
[2] = tested on: HeLa Kyoto; experiment: solubility change mitosis vs G1/S (difference of NP-40 vs SDS log2 ratios) (log2 ratio difference); higher = more soluble in mitosis
[3] = tested on: HeLa Kyoto; experiment: solubility in G1/S (NP-40 vs SDS abundance) (log2 ratio); higher = more soluble; details: cell cycle stage: G1/S
[4] = tested on: HeLa Kyoto; experiment: melting temperature (median over replicates), in situ; higher = more thermally stable
[5] = cell cycle stage: early G1 (4.5 h after nocodazole release)
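For melting temperature (median over replicates), in situ in this document: HeLa Kyoto cells synchronized by double thymidine or nocodazole block, proteins quantified by TMT10plex mass spectrometry, three independent biological replicates.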
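For solubility change mitosis vs G1/S (difference of NP-40 vs SDS log2 ratios) in this document: synchronized HeLa Kyoto cells (double thymidine block for G1/S, nocodazole release for mitosis), protein amounts in NP-40 versus SDS lysates quantified by mass spectrometry, three biological replicates.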
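For solubility in G1/S (NP-40 vs SDS abundance) in this document: HeLa Kyoto cells arrested at G1/S by double thymidine block, proteins quantified by TMT10plex mass spectrometry in mild NP-40 versus SDS extracts, three biological replicates.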
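For thermal stability score vs G1/S (z-score of summed log2 fold changes over temperatures) in this document: synchronized HeLa Kyoto cells, proteins quantified by TMT10plex mass spectrometry, three biological replicates, mitosis taken 0.5 h after nocodazole release, G1/S directly after double thymidine block.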

Sequence | thermal stability score [1, 5] | thermal stability score ([1]; cell cycle stage: mitosis) | solubility change mitosis (log2) [2] | solubility in G1/S (log2) [3] | melting temperature ([4]; cell cycle stage: G1/S) | melting temperature ([4]; cell cycle stage: mitosis)
MSAGEVERLVSELSGGTGGDEEEEWLYGGPWDVHVHSDLAKDLDENEVERPEEENASANPPSGIEDETAENGVPKPKVTETEDDSDSDSDDDEDDVHVTIGDIKTGAPQYGSYGTAPVNLNIKTGGRVYGTTGTKVKGVDLDAPGSINGVPLLEVDLDSFEDKPWRKPGADLSDYFNYGFNEDTWKAYCEKQKRIRMGLEVIPVTSTTNKITAEDCTMEVTPGAEIQDGRFNLFKVQQGRTGNSEKETALPSTKAEFTSPPSLFKTGLPPSRNSTSSQSQTSTASRKANSSVGKWQDRYGRAESPDLRRLPGAIDVIGQTITISRVEGRRRANENSNIQVLSERSATEVDNNFSKPPPFFPPGAPPTHLPPPPFLPPPPTVSTAPPLIPPPGFPPPPGAPPPSLIPTIESGHSSGYDSRSARAFPYGNVAFPHLPGSAPSWPSLVDTSKQWDYYARREKDRDRERDRDRERDRDRDRERERTRERERERDHSPTPSVFNSDEERYRYREYAERGYERHRASREKEERHRERRHREKEETRHKSSRSNSRRRHESEEGDSHRRHKHKKSKRSKEGKEAGSEPAPEQESTEATPAE [FIP1L1] | 0.669 | 2.71 | 0.265 | -0.594 | 48.8 °C | 49.9 °C
MSAIPAEESDQLLIRPLGAGQEVGRSCIILEFKGRKIMLDCGIHPGLEGMDALPYIDLIDPAEIDLLLISHFHLDHCGALPWFLQKTSFKGRTFMTHATKAIYRWLLSDYVKVSNISADDMLYTETDLEESMDKIETINFHEVKEVAGIKFWCYHAGHVLGAAMFMIEIAGVKLLYTGDFSRQEDRHLMAAEIPNIKPDILIIESTYGTHIHEKREEREARFCNTVHDIVNRGGRGLIPVFALGRAQELLLILDEYWQNHPELHDIPIYYASSLAKKCMAVYQTYVNAMNDKIRKQININNPFVFKHISNLKSMDHFDDIGPSVVMASPGMMQSGLSRELFESWCTDKRNGVIIAGYCVEGTLAKHIMSEPEEITTMSGQKLPLKMSVDYISFSAHTDYQQTSEFIRALKPPHVILVHGEQNEMARLKAALIREYEDNDEVHIEVHNPRNTEAVTLNFRGEKLAKVMGFLADKKPEQGQRVSGILVKRNFNYHILSPCDLSNYTDLAMSTVKQTQAIPYTGPFNLLCYQLQKLTGDVEELEIQEKPALKVFKNITVIQEPGMVVLEWLANPSNDMYADTVTTVILEVQSNPKIRKGAVQKVSKKLEMHVYSKRLEIMLQDIFGEDCVSVKDDSILSVTVDGKTANLNLETRTVECEEGSEDDESLREMVELAAQRLYEALTPVH [CPSF3] | 0.918 | 1.38 | -0.00173 | -0.183 | 51.2 °C | 50.5 °C
MSALLRLLRTGAPAAACLRLGTSAGTGSRRAMALYHTEERGQPCSQNYRLFFKNVTGHYISPFHDIPLKVNSKEENGIPMKKARNDEYENLFNMIVEIPRWTNAKMEIATKEPMNPIKQYVKDGKLRYVANIFPYKGYIWNYGTLPQTWEDPHEKDKSTNCFGDNDPIDVCEIGSKILSCGEVIHVKILGILALIDEGETDWKLIAINANDPEASKFHDIDDVKKFKPGYLEATLNWFRLYKVPDGKPENQFAFNGEFKNKAFALEVIKSTHQCWKALLMKKCNGGAINCTNVQISDSPFRCTQEEARSLVESVSSSPNKESNEEEQVWHFLGK [PPA2] | -1.33 | -2 | 0.0395 | 0.442 | 54.8 °C | 55.1 °C
MSAQAQMRALLDQLMGTARDGDETRQRVKFTDDRVCKSHLLDCCPHDILAGTRMDLGECTKIHDLALRADYEIASKERDLFFELDAMDHLESFIAECDRRTELAKKRLAETQEEISAEVSAKAEKVHELNEEIGKLLAKAEQLGAEGNVDESQKILMEVEKVRAKKKEAEEEYRNSMPASSFQQQKLRVCEVCSAYLGLHDNDRRLADHFGGKLHLGFIQIREKLDQLRKTVAEKQEKRNQDRLRRREEREREERLSRRSGSRTRDRRRSRSRDRRRRRSRSTSRERRKLSRSRSRDRHRRHRSRSRSHSRGHRRASRDRSAKYKFSRERASREESWESGRSERGPPDWRLESSNGKMASRRSEEKEAGEI [LUC7L] | 1.93 | 1.87 | 0.353 | -0.598 | 50.1 °C | 51.4 °C
MSAQAQMRAMLDQLMGTSRDGDTTRQRIKFSDDRVCKSHLLNCCPHDVLSGTRMDLGECLKVHDLALRADYEIASKEQDFFFELDAMDHLQSFIADCDRRTEVAKKRLAETQEEISAEVAAKAERVHELNEEIGKLLAKVEQLGAEGNVEESQKVMDEVEKARAKKREAEEVYRNSMPASSFQQQKLRVCEVCSAYLGLHDNDRRLADHFGGKLHLGFIEIREKLEELKRVVAEKQEKRNQERLKRREEREREEREKLRRSRSHSKNPKRSRSREHRRHRSRSMSRERKRRTRSKSREKRHRHRSRSSSRSRSRSHQRSRHSSRDRSRERSKRRSSKERFRDQDLASCDRDRSSRDRSPRDRDRKDKKRSYESANGRSEDRRSSEEREAGEI [LUC7L2] | 2.1 | 3.71 | 0.251 | -0.803 | 48.6 °C | 50.7 °C
MSASAPAAEGEGTPTQPASEKEPEMPGPREESEEEEDEDDEEEEEEEKEKSLIVEGKREKKKVERLTMQVSSLQREPFTIAQGKGQKLCEIERIHFFLSKKKTDELRNLHKLLYNRPGTVSSLKKNVGQFSGFPFEKGSVQYKKKEEMLKKFRNAMLKSICEVLDLERSGVNSELVKRILNFLMHPKPSGKPLPKSKKTCSKGSKKERNSSGMARKAKRTKCPEILSDESSSDEDEKKNKEESSDDEDKESEEEPPKKTAKREKPKQKATSKSKKSVKSANVKKADSSTTKKNQNSSKKESESEDSSDDEPLIKKLKKPPTDEELKETIKKLLASANLEEVTMKQICKKVYENYPTYDLTERKDFIKTTVKELIS | 7.97 | 13.2 | 0.338 | -0.0398 | 48.8 °C | 50.7 °C
MSASAQQLAEELQIFGLDCEEALIEKLVELCVQYGQNEEGMVGELIAFCTSTHKVGLTSEILNSFEHEFLSKRLSKARHSTCKDSGHAGARDIVSIQELIEVEEEEEILLNSYTTPSKGSQKRAISTPETPLTKRSVSTRSPHQLLSPSSFSPSATPSQKYNSRSNRGEVVTSFGLAQGVSWSGRGGAGNISLKVLGCPEALTGSYKSMFQKLPDIREVLTCKIEELGSELKEHYKIEAFTPLLAPAQEPVTLLGQIGCDSNGKLNNKSVILEGDREHSSGAQIPVDLSELKEYSLFPGQVVIMEGINTTGRKLVATKLYEGVPLPFYQPTEEDADFEQSMVLVACGPYTTSDSITYDPLLDLIAVINHDRPDVCILFGPFLDAKHEQVENCLLTSPFEDIFKQCLRTIIEGTRSSGSHLVFVPSLRDVHHEPVYPQPPFSYSDLSREDKKQVQFVSEPCSLSINGVIFGLTSTDLLFHLGAEEISSSSGTSDRFSRILKHILTQRSYYPLYPPQEDMAIDYESFYVYAQLPVTPDVLIIPSELRYFVKDVLGCVCVNPGRLTKGQVGGTFARLYLRRPAADGAERQSPCIAVQVVRI [POLA2] | 1.44 | 4.66 | -0.155 | 0.0737 | 48.8 °C | 50.2 °C
MSASLVRATVRAVSKRKLQPTRAALTLTPSAVNKIKQLLKDKPEHVGVKVGVRTRGCNGLSYTLEYTKTKGDSDEEVIQDGVRVFIEKKAQLTLLGTEMDYVEDKLSSEFVFNNPNIKGTCGCGESFNI [ISCA1] | -0.782 | -2.35 | -0.0859 | 0.427 | 52.3 °C | 51.9 °C
MSATVVDAVNAAPLSGSKEMSLEEPKKMTREDWRKKKELEEQRKLGNAPAEVDEEGKDINPHIPQYISSVPWYIDPSKRPTLKHQRPQPEKQKQFSSSGEWYKRGVKENSIITKYRKGACENCGAMTHKKKDCFERPRRVGAKFTGTNIAPDEHVQPQLMFDYDGKRDRWNGYNPEEHMKIVEEYAKVDLAKRTLKAQKLQEELASGKLVEQANSPKHQWGEEEPNSQMEKDHNSEDEDEDKYADDIDMPGQNFDSKRRITVRNLRIREDIAKYLRNLDPNSAYYDPKTRAMRENPYANAGKNPDEVSYAGDNFVRYTGDTISMAQTQLFAWEAYDKGSEVHLQADPTKLELLYKSFKVKKEDFKEQQKESILEKYGGQEHLDAPPAELLLAQTEDYVEYSRHGTVIKGQERAVACSKYEEDVKIHNHTHIWGSYWKEGRWGYKCCHSFFKYSYCTGEAGKEIVNSEECIINEITGEESVKKPQTLMELHQEKLKEEKKKKKKKKKKHRKSSSDSDDEEKKHEKLKKALNAEEARLLHVKETMQIDERKRPYNSMYETREPTEEEMEAYRMKRQRPDDPMASFLGQ [SLU7] | 0.191 | 0.493 | 0.256 | -0.523 | 46.9 °C | 49.9 °C
MSAYPKSYNPFDDDGEDEGARPAPWRDARDLPDGPDAPADRQQYLRQEVLRRAEATAASTSRSLALMYESEKVGVASSEELARQRGVLERTEKMVDKMDQDLKISQKHINSIKSVFGGLVNYFKSKPVETPPEQNGTLTSQPNNRLKEAISTSKEQEAKYQASHPNLRKLDDTDPVPRGAGSAMSTDAYPKNPHLRAYHQKIDSNLDELSMGLGRLKDIALGMQTEIEEQDDILDRLTTKVDKLDVNIKSTERKVRQL [SNAP29] | -4.76 | -2.04 | 0.314 | 0.394 | 52.7 °C | 52.7 °C
MSDEEARQSGGSSQAGVVTVSDVQELMRRKEEIEAQIKANYDVLESQKGIGMNEPLVDCEGYPRSDVDLYQVRTARHNIICLQNDHKAVMKQVEEALHQLHARDKEKQARDMAEAHKEAMSRKLGQSESQGPPRAFAKVNSISPGSPASIAGLQVDDEIVEFGSVNTQNFQSLHNIGSVVQHSEGKPLNVTVIRRGEKHQLRLVPTRWAGKGLLGCNIIPLQR [PSMD9] | -2.77 | -3.23 | 0.112 | 0.431 | 55.8 °C | 55.7 °C
MSDFDEFERQLNENKQERDKENRHRKRSHSRSRSRDRKRRSRSRDRRNRDQRSASRDRRRRSKPLTRGAKEEHGGLIRSPRHEKKKKVRKYWDVPPPGFEHITPMQYKAMQAAGQIPATALLPTMTPDGLAVTPTPVPVVGSQMTRQARRLYVGNIPFGITEEAMMDFFNAQMRLGGLTQAPGNPVLAVQINQDKNFAFLEFRSVDETTQAMAFDGIIFQGQSLKIRRPHDYQPLPGMSENPSVYVPGVVSTVVPDSAHKLFIGGLPNYLNDDQVKELLTSFGPLKAFNLVKDSATGLSKGYAFCEYVDINVTDQAIAGLNGMQLGDKKLLVQRASVGAKNATLVSPPSTINQTPVTLQVPGLMSSQVQMGGHPTEVLCLMNMVLPEELLDDEEYEEIVEDVRDECSKYGLVKSIEIPRPVDGVEVPGCGKIFVEFTSVFDCQKAMQGLTGRKFANRVVVTKYCDPDSYHRRDFW [U2AF2] | 1.65 | 5.33 | 0.177 | -0.395 | 49.7 °C | 50.5 °C
MSDGDYDYLIKFLALGDSGVGKTSVLYQYTDGKFNSKFITTVGIDFREKRVVYRASGPDGATGRGQRIHLQLWDTAGQERFRSLTTAFFRDAMGFLLLFDLTNEQSFLNVRNWISQLQMHAYCENPDIVLCGNKSDLEDQRVVKEEEAIALAEKYGIPYFETSAANGTNISQAIEMLLDLIMKRMERCVDKSWIPEGVVRSNGHASTDQLSEEKEKGACGC [RAB27A] | 2.41 | 2.1 | -0.0891 | 0.222 | 52.7 °C | 53.9 °C
MSDHGDVSLPPEDRVRALSQLGSAVEVNEDIPPRRYFRSGVEIIRMASIYSEEGNIEHAFILYNKYITLFIEKLPKHRDYKSAVIPEKKDTVKKLKEIAFPKAEELKAELLKRYTKEYTEYNEEKKKEAEELARNMAIQQELEKEKQRVAQQKQQQLEQEQFHAFEEMIRNQELEKERLKIVQEFGKVDPGLGGPLVPDLEKPSLDVFPTLTVSSIQPSDCHTTVRPAKPPVVDRSLKPGALSNSESIPTIDGLRHVVVPGRLCPQFLQLASANTARGVETCGILCGKLMRNEFTITHVLIPKQSAGSDYCNTENEEELFLIQDQQGLITLGWIHTHPTQTAFLSSVDLHTHCSYQMMLPESVAIVCSPKFQETGFFKLTDHGLEEISSCRQKGFHPHSKDPPLFCSCSHVTVVDRAVTITDLR [STAMBP] | 0.214 | 0.921 | -0.118 | 0.276 | 48.6 °C | 49.7 °C
